Measured values from the supplement of paper PMC9112550, “Optimization of the antimicrobial peptide Bac7 by deep mutational scanning” (BMC Biology, 2022).
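Note: peptides expressed intracellularly from a pBAD plasmid library in pooled LB shake-flask culture, induced with 0.3% L-arabinose, DNA abundance read by NGS, three biological replicates, DESeq2 with apeglm shrinkage.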

The sequences below were run on Escherichia coli TOP10 (assay: shrunken log2 fold change of peptide-encoding DNA abundance (4.5 h post-induction vs induction); higher = less antimicrobial activity (less host growth inhibition)). Conditions: time post-induction: 4.5 h; library: site-saturation at positions 5, 18, 19, 20.
For RRIRCRPPRLPRPRPRPMIGPRP, the “shrunken log2 fold change” value was -0.0953. RRIRDRPPRLPRPRPRPNWAPRP was tested, and the “shrunken log2 fold change” value was 0.00788. In the case of RRIRMRPPRLPRPRPRPKLIPRP, the “shrunken log2 fold change” value is reported as -0.0987. RRIRWRPPRLPRPRPRPNIPPRP was tested, and the “shrunken log2 fold change” value was -0.476. In the case of RRIRRRPPRLPRPRPRPCNPPRP, the “shrunken log2 fold change” value is reported as -0.466. RRIRRRPPRLPRPRPRPYEKPRP was tested, and the “shrunken log2 fold change” value was 0.0137. With RRIRTRPPRLPRPRPRPNVKPRP the “shrunken log2 fold change” value was -0.137. With RRIRKRPPRLPRPRPRPIYHPRP the “shrunken log2 fold change” value was -0.472. For RRIRSRPPRLPRPRPRPVDPPRP, the “shrunken log2 fold change” value was 0.00726. With RRIRIRPPRLPRPRPRPWVIPRP the “shrunken log2 fold change” value was -0.0141. With RRIRSRPPRLPRPRPRPTKGPRP the “shrunken log2 fold change” value was -0.0226. In the case of RRIRIRPPRLPRPRPRPYYWPRP, the “shrunken log2 fold change” value is reported as -0.449. In the case of RRIRLRPPRLPRPRPRPYIYPRP, the “shrunken log2 fold change” value is reported as -1.24. With RRIRGRPPRLPRPRPRPVGKPRP the “shrunken log2 fold change” value was 0.646. In the case of RRIRIRPPRLPRPRPRPEAEPRP, the “shrunken log2 fold change” value is reported as 0.677. In the case of RRIRQRPPRLPRPRPRPPLKPRP, the “shrunken log2 fold change” value is reported as -0.0174. For RRIRARPPRLPRPRPRPLTPPRP, the “shrunken log2 fold change” value was 0.548. With RRIRARPPRLPRPRPRPNDLPRP the “shrunken log2 fold change” value was 0.172. With RRIRHRPPRLPRPRPRPAINPRP the “shrunken log2 fold change” value was -0.221. For RRIRIRPPRLPRPRPRPCRQPRP, the “shrunken log2 fold change” value was 0.112. For RRIRIRPPRLPRPRPRPAGYPRP, the “shrunken log2 fold change” value was -0.038. In the case of RRIRCRPPRLPRPRPRPWLSPRP, the “shrunken log2 fold change” value is reported as -0.215. For RRIRMRPPRLPRPRPRPAKHPRP, the “shrunken log2 fold change” value was 0.542. RRIRARPPRLPRPRPRPCQWPRP was tested, and the “shrunken log2 fold change” value was -0.0491. For RRIRDRPPRLPRPRPRPYTPPRP, the “shrunken log2 fold change” value was -0.95. RRIRRRPPRLPRPRPRPVNEPRP was tested, and the “shrunken log2 fold change” value was 0.196. For RRIRCRPPRLPRPRPRPDCTPRP, the “shrunken log2 fold change” value was -0.232. In the case of RRIRVRPPRLPRPRPRPWDCPRP, the “shrunken log2 fold change” value is reported as -0.0389. For RRIRFRPPRLPRPRPRPGVPPRP, the “shrunken log2 fold change” value was 0.0248. With RRIRMRPPRLPRPRPRPISIPRP the “shrunken log2 fold change” value was -0.313. With RRIRYRPPRLPRPRPRPPVPPRP the “shrunken log2 fold change” value was 0.486. RRIRFRPPRLPRPRPRPHQWPRP was tested, and the “shrunken log2 fold change” value was -0.0612. In the case of RRIRKRPPRLPRPRPRPSSGPRP, the “shrunken log2 fold change” value is reported as -0.0282. For RRIRYRPPRLPRPRPRPRGGPRP, the “shrunken log2 fold change” value was 0.139. With RRIRWRPPRLPRPRPRPWHKPRP the “shrunken log2 fold change” value was -0.0356. With RRIRRRPPRLPRPRPRPYTHPRP the “shrunken log2 fold change” value was -0.505. In the case of RRIRMRPPRLPRPRPRPVKHPRP, the “shrunken log2 fold change” value is reported as 0.0894. In the case of RRIRERPPRLPRPRPRPKNQPRP, the “shrunken log2 fold change” value is reported as -0.281. With RRIRCRPPRLPRPRPRPFHLPRP the “shrunken log2 fold change” value was -1.11. With RRIRKRPPRLPRPRPRPRCCPRP the “shrunken log2 fold change” value was 0.491. With RRIRTRPPRLPRPRPRPTASPRP the “shrunken log2 fold change” value was 0.0344. For RRIRLRPPRLPRPRPRPLVCPRP, the “shrunken log2 fold change” value was -0.0954. For RRIRMRPPRLPRPRPRPDKHPRP, the “shrunken log2 fold change” value was 0.253. RRIRLRPPRLPRPRPRPMRSPRP was tested, and the “shrunken log2 fold change” value was 0.0143. In the case of RRIRERPPRLPRPRPRPENLPRP, the “shrunken log2 fold change” value is reported as -0.226. For RRIRIRPPRLPRPRPRPCIKPRP, the “shrunken log2 fold change” value was -0.185. RRIRRRPPRLPRPRPRPGQDPRP was tested, and the “shrunken log2 fold change” value was 0.112. RRIRFRPPRLPRPRPRPQTHPRP was tested, and the “shrunken log2 fold change” value was -0.151. For RRIRRRPPRLPRPRPRPINMPRP, the “shrunken log2 fold change” value was -0.271. For RRIRHRPPRLPRPRPRPHKTPRP, the “shrunken log2 fold change” value was 0.00711. In the case of RRIRRRPPRLPRPRPRPRFIPRP, the “shrunken log2 fold change” value is reported as 0.00289. With RRIRDRPPRLPRPRPRPIGSPRP the “shrunken log2 fold change” value was -0.693. With RRIRNRPPRLPRPRPRPWGIPRP the “shrunken log2 fold change” value was -0.199. RRIRDRPPRLPRPRPRPCVGPRP was tested, and the “shrunken log2 fold change” value was 0.97. With RRIRMRPPRLPRPRPRPCLAPRP the “shrunken log2 fold change” value was 0.215. In the case of RRIRWRPPRLPRPRPRPVQHPRP, the “shrunken log2 fold change” value is reported as 0.136. With RRIRHRPPRLPRPRPRPSVTPRP the “shrunken log2 fold change” value was -0.453. In the case of RRIRLRPPRLPRPRPRPQLHPRP, the “shrunken log2 fold change” value is reported as -0.123. In the case of RRIRERPPRLPRPRPRPYVYPRP, the “shrunken log2 fold change” value is reported as -0.296. RRIRFRPPRLPRPRPRPVFVPRP was tested, and the “shrunken log2 fold change” value was -0.277. For RRIRERPPRLPRPRPRPCANPRP, the “shrunken log2 fold change” value was -0.158. RRIRIRPPRLPRPRPRPFDFPRP was tested, and the “shrunken log2 fold change” value was -0.181. In the case of RRIRNRPPRLPRPRPRPISEPRP, the “shrunken log2 fold change” value is reported as 0.00895. With RRIRGRPPRLPRPRPRPTFTPRP the “shrunken log2 fold change” value was 0.638. With RRIRIRPPRLPRPRPRPYRNPRP the “shrunken log2 fold change” value was -0.0378. In the case of RRIRKRPPRLPRPRPRPIGGPRP, the “shrunken log2 fold change” value is reported as -0.494. In the case of RRIRKRPPRLPRPRPRPHCNPRP, the “shrunken log2 fold change” value is reported as -0.275. RRIRTRPPRLPRPRPRPRMKPRP was tested, and the “shrunken log2 fold change” value was 0.0156. With RRIRIRPPRLPRPRPRPNICPRP the “shrunken log2 fold change” value was -0.147. RRIRKRPPRLPRPRPRPATMPRP was tested, and the “shrunken log2 fold change” value was 0.49. With RRIRERPPRLPRPRPRPGVDPRP the “shrunken log2 fold change” value was 0.114. With RRIRGRPPRLPRPRPRPADCPRP the “shrunken log2 fold change” value was 0.349. With RRIRARPPRLPRPRPRPANNPRP the “shrunken log2 fold change” value was -0.0617. RRIRMRPPRLPRPRPRPPYRPRP was tested, and the “shrunken log2 fold change” value was 0.00408. With RRIRFRPPRLPRPRPRPDPVPRP the “shrunken log2 fold change” value was 0.227.
